From PMC2132522

Tests used:
[1] = target: F-actin (rabbit muscle) (rabbit) (UniProt P68135); experiment: co-sedimentation
[2] = target: NBD-labeled G-actin (rabbit muscle) (rabbit) (UniProt P68135); experiment: other fluorescence titration
[3] = target: pyrenyl-labeled F-actin (rabbit muscle) (rabbit) (UniProt P68135); experiment: other fluorescence titration
[4] = target: G-actin (rabbit muscle) (rabbit) (UniProt P68135)

stoichiometry N [1]: 1
Kd [2]: 25 nM
stoichiometry N [2]: 1
Ka [3]: > 1e+06 M⁻¹
stoichiometry N [3]: 1
association to barbed ends in low ionic strength F buffer (1 mM MgCl2) [4]: 20 fold
Substance: Recombinant ADF1 from Arabidopsis thaliana (natural protein)
